This passage reports pKd results from PMC9482650, “Quantitative fragmentomics allow affinity mapping of interactomes” (Nature Communications, 2022).

Holding throughout (experiment): holdup assay
Common to all, as to parameters: key: below the threshold = too weak to quantify, mostly under pKd 3.1 to 4
Holding throughout (conditions): plain residues with an end cap or a label only (N-terminal biotin on a linker: ado-ado)

Assay [1] has as its target T1, APBA1_1, Q02410.
T1 sequence (Q02410 651-752, limits assumed, looked up): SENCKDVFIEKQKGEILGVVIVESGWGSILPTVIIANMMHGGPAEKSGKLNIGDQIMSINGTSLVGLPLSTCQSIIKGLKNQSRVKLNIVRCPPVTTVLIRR

The target of assay [2] is T2, ARHGEF11, O15085.
T2 sequence (O15085 42-136, limits assumed, looked up): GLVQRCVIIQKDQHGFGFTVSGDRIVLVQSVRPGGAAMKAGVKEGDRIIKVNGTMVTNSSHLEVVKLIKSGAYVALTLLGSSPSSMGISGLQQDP

Assay [3] deals with T3, DLG3_2, Q92796.
T3 sequence (Q92796 221-321, limits assumed, looked up): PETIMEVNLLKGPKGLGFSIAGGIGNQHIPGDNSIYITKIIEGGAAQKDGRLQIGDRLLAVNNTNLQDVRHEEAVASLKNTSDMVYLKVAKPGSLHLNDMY

Assay [4] addresses T4, DVL3, Q92997.
T4 sequence (Q92997 244-331, limits assumed, looked up): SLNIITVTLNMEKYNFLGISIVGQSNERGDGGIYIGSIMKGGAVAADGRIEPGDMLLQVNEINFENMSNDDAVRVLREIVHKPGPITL

For assay [5], the target named is FRMPD2_2, Q68DX3.
Chain of FRMPD2_2, Q68DX3 (Q68DX3 944-1038): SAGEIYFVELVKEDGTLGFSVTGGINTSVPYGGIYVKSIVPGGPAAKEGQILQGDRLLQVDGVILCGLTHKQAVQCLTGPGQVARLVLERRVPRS
In assay [6] the target is FRMPD2_3, Q68DX3.
Chain of FRMPD2_3, Q68DX3 (Q68DX3 1073-1166): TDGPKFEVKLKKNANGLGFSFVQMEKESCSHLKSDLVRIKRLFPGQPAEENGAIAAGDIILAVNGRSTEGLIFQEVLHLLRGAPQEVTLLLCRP
The target in assay [7] is GRASP, Q7Z6J2.
Chain of GRASP, Q7Z6J2 (Q7Z6J2 96-193): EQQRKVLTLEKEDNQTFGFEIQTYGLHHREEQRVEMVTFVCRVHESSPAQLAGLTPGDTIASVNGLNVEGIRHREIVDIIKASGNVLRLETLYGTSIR
In assay [8] the target is GRID2IP_2, A4D2P6.
Chain of GRID2IP_2, A4D2P6 (A4D2P6 272-370): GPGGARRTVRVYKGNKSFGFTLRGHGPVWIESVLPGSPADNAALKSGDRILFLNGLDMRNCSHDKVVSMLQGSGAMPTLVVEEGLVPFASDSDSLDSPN
Assay [9] concerns the target T5, GRIP1_4, Q9Y3R0.
T5 sequence (Q9Y3R0 467-571, limits assumed, looked up): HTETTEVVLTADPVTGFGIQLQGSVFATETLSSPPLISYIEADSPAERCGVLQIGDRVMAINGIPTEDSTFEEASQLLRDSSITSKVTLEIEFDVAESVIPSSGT

Assay [10] addresses Inadl_6, Q8NI35.
Assay [11] has as its target LAP2, Q96RT1.
Assay [12] addresses T6, LIN7B, Q9HAP6.
T6 sequence (Q9HAP6 88-185, limits assumed, looked up): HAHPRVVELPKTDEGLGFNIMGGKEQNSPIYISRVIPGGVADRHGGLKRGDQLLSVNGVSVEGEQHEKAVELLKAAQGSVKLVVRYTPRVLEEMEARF

In assay [13] the target is T7, LIN7C, Q9NUP9.
T7 sequence (Q9NUP9 88-185, limits assumed, looked up): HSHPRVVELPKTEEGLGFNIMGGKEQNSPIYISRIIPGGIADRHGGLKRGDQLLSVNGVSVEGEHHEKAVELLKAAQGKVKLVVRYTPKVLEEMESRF

The target of assay [14] is LNX1_2, Q8TBB1.
Chain of LNX1_2, Q8TBB1 (Q8TBB1 371-470): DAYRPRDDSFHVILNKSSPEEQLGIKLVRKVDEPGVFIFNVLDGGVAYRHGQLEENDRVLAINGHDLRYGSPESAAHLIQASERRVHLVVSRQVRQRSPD
For assay [15], the target named is MAGI1_2, Q96QZ7.
Chain of MAGI1_2, Q96QZ7 (Q96QZ7 456-580): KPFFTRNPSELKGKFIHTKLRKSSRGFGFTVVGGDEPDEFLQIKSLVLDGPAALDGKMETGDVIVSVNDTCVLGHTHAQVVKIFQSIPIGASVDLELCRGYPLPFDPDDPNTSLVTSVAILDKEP
Assay [16] concerns the target T8, MPDZ_10, O75970.
T8 sequence (O75970 1624-1722, limits assumed, looked up): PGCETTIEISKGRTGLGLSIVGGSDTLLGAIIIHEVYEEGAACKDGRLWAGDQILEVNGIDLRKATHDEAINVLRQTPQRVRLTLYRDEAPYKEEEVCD

Assay [17] deals with T9, MPDZ_5, O75970.
T9 sequence (O75970 695-796, limits assumed, looked up): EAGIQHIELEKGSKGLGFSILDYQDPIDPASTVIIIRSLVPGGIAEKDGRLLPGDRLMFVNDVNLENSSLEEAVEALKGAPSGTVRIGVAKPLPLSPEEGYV

The target in assay [18] is T10, PDZD2_2, O15018.
T10 sequence (O15018 329-429, limits assumed, looked up): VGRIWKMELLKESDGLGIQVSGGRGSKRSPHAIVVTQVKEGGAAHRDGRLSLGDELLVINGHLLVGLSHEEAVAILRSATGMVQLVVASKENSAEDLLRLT

Assay [19] concerns the target PICK1, Q9NRD5.
The target in assay [20] is T11, SNTB1, Q13884.
T11 sequence (Q13884 107-205, limits assumed, looked up): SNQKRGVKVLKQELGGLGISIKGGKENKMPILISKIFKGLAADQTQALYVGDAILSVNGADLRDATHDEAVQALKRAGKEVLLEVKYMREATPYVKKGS

The target of assay [21] is SNX27, Q96L92.
In assay [22] the target is T12, TIAM2, Q8IVF5.
T12 sequence (Q8IVF5 885-986, limits assumed, looked up): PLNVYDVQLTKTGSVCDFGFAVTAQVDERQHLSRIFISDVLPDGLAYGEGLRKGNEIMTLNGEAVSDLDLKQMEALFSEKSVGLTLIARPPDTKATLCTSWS

Assay [23] addresses T13, TX1BP3, O14907.
T13 sequence (O14907 10-122, limits assumed, looked up): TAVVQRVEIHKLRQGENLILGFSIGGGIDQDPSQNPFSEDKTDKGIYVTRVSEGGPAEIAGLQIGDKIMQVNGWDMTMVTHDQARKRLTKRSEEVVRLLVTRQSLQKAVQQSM

Chain of LAP2, Q96RT1 (Q96RT1 other isoform, or with tags, fused parts or gaps): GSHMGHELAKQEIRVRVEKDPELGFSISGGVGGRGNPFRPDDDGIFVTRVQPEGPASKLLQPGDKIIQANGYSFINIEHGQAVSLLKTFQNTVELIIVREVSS
Chain of PICK1, Q9NRD5 (Q9NRD5 17-115): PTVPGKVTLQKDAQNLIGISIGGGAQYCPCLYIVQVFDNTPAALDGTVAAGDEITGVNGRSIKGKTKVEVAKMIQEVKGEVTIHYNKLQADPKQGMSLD
Chain of Inadl_6, Q8NI35 (Q8NI35 1058-1167): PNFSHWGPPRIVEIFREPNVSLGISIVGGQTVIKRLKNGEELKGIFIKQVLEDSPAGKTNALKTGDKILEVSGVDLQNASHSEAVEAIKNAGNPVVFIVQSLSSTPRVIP

Regarding VCMGDHWFDV [PRKN, O60260], the negative logarithm of the Kd (pKd) (as a rule, −log10 of the Kd, conventionally taken in molar units) in assay [1] was “below the threshold”; in assay [2] it was 4.18; in [3], “below the threshold”; in [4] it was 3.59; in assay [5], “below the threshold”; in assay [6], 3.58. The pKd in assay [7] is 3.53; in assay [8] it was “below the threshold”; in assay [9] it was “below the threshold”; in assay [10], 3.7; in [11] it was 3.67; in assay [12] it was “below the threshold”. Further, the pKd result in assay [13] was “below the threshold”; in assay [14], 4.07; in [15], “below the threshold”; in assay [16], “below the threshold”; in [17], “below the threshold”; in assay [18] it was 4.57. Moreover, the pKd result in [19] was “below the threshold”; in assay [20], “below the threshold”; in [21], 4.14; in assay [22] it was “below the threshold”; in assay [23] it was 3.77.

Consider KLQNPNQSVV [TYRP1, P17643], for which the negative-log Kd (pKd) entry in assay [1] was “below the threshold”; in assay [2] it was 3.9; in assay [3], 3.86; in assay [4], “below the threshold”; in assay [5], “below the threshold”; in assay [6], “below the threshold”. Moreover, the pKd is 4 in [7]; 3.63 in assay [8]; “below the threshold” in [9]; “below the threshold” in assay [10]; “below the threshold” in [11]; “below the threshold” in assay [12]. Moreover, the pKd result in assay [13] is “below the threshold”; in assay [14] it was “below the threshold”; in [15], “below the threshold”; in [16] it was 3.54; in assay [17], “below the threshold”; in assay [18], 4.57. In addition, the negative-log Kd (pKd) was 4.19 in [19]; 3.72 in assay [20]; 4.04 in [21]; “below the threshold” in assay [22]; “below the threshold” in assay [23].

QRYPGNQTTC [CCL24, O00175]: the pKd entry in [1] was “below the threshold”; in assay [2] it was “below the threshold”; in assay [3], 4.26; in [4], “below the threshold”; in assay [5], “below the threshold”; in assay [6] it was “below the threshold”. In addition, the pKd was 3.48 in [7]; 4.08 in assay [8]; “below the threshold” in assay [9]; “below the threshold” in assay [10]; “below the threshold” in assay [11]; 3.85 in [12]. The negative logarithm of the Kd (pKd) entry is “below the threshold” in assay [13]; 3.49 in [14]; “below the threshold” in assay [15]; “below the threshold” in assay [16]; “below the threshold” in assay [17]; “below the threshold” in assay [18]. Further, the negative-log Kd (pKd) entry was “below the threshold” in assay [19]; 3.6 in assay [20]; “below the threshold” in assay [21]; 4.09 in assay [22]; “below the threshold” in assay [23].

With SQPLLVHDDV [KIT, P10721], the negative logarithm of the Kd (pKd) entry in assay [1], in assay [2], in assay [3], in assay [4], in [5] and in assay [6] was “below the threshold” in each case. Further, the negative-log Kd (pKd) result is “below the threshold” in [7]; “below the threshold” in [8]; “below the threshold” in assay [9]; “below the threshold” in [10]; 3.56 in assay [11]; “below the threshold” in [12]. Moreover, the negative logarithm of the Kd (pKd) entry in assay [13] is “below the threshold”; in assay [14], “below the threshold”; in assay [15], “below the threshold”; in [16], 3.93; in assay [17], “below the threshold”; in [18] it was 3.99. In addition, the negative-log Kd (pKd) in assay [19] is 4.06; in assay [20] it was “below the threshold”; in assay [21], “below the threshold”; in [22], “below the threshold”; in assay [23], “below the threshold”.

In the case of PKSNSSKEYV [CLDN7, O95471], the pKd entry in [1], in assay [2], in [3], in assay [4], in [5] and in [6] was “below the threshold” each time. Further, the pKd entry in assay [7], in assay [8], in assay [9], in [10], in [11] and in assay [12] was “below the threshold” throughout. Further, the pKd is 4.06 in [13]; “below the threshold” in assay [14]; “below the threshold” in assay [15]; “below the threshold” in assay [16]; “below the threshold” in assay [17]; 3.82 in assay [18]. The negative-log Kd (pKd) entry in assay [19], in assay [20], in assay [21], in assay [22] and in [23] was “below the threshold” each time.
